In patent US20230365658A1 (LAWRENCE LIVERMORE NATIONAL SECURITY, published 2023):
Numbering of substitutions follows the chain as printed.

B1: mAb_RBD_2130_FAB_20211231_00199 (antibody, V domains shown)
VH: EVQLVESGGGLVKPGGSLRLSCAASGFTFRDVWMSWVRQAPGKGLEWVGRIKSKIDGGTTDYAAPVKGRFTISRDDSKNTLYLQMNSLKTEDTAVYYCTTAGSYYYDTVGPGLPEGKFDYWGQGTLVTVSS
VL: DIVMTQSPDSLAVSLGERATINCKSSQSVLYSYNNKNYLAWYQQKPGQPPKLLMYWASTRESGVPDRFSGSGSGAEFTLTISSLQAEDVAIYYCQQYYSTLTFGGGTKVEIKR
B2: v2130_upsample_20220121_00009 (antibody, V domains shown)
VH: B1 VH with Y106D, F118I
VL: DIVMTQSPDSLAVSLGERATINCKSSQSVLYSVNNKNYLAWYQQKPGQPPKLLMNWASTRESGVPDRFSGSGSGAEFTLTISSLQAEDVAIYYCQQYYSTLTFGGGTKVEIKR
B3: mAb_v2130JustStableLines_20220111_00002 (antibody, V domains shown)
VH: B1 VH with I55D
VL: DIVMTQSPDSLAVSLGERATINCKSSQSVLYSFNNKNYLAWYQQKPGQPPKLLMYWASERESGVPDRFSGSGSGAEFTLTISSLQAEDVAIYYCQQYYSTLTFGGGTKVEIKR
notes: also called LLNL010
B4: mAb_v2130Vanderbilt_184_20220114_00112 (antibody, V domains shown)
VH: B1 VH with G112E
VL: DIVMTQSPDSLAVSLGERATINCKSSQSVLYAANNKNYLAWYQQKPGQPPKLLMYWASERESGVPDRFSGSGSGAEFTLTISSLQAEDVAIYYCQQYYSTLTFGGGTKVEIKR
B5: v2130_upsample_20220121_00298 (antibody, V domains shown)
VH: B1 VH with I55E, Y106H
VL: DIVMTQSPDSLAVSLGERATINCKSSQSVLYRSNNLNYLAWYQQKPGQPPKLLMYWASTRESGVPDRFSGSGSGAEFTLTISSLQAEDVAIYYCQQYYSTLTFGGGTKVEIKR
B6: v2130_upsample_20220121_00354 (antibody, V domains shown)
VH: B1 VH with V109R, G112E
VL: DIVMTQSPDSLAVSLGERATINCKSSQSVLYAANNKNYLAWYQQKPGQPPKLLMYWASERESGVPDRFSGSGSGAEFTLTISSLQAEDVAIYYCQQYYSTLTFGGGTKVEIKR
B7: mAb_v2130Vanderbilt_184_20220114_00111 (antibody, V domains shown)
VH: B1 VH with G112E
VL: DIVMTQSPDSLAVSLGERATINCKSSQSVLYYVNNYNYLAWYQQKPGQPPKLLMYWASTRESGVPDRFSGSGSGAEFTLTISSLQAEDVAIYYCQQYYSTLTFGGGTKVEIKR
notes: also called LLNL198

Tests used:
[1] = molecular target: T1, SARS-CoV-2 spike (S) glycoprotein, Omicron BA.2 (SARS-CoV-2, UniProt P0DTC2 14-1273); test: cell-based or functional assay
[2] = molecular target: T2, SARS-CoV-2 spike (S) glycoprotein, Omicron BA.1 (SARS-CoV-2, UniProt P0DTC2 14-1273); test: cell-based or functional assay
[3] = molecular target: T3, SARS-CoV-2 Spike-RBD, Delta (SARS-CoV-2, UniProt P0DTC2 319-541); test: Gyros full-curve immunoassay, mAb titrated on RBD, relative binding (FI)
T3 construct: domain: RBD; also called Delta RBD

[4] = molecular target: T1, SARS-CoV-2 spike (S) glycoprotein, …; test: cell-based or functional assay; remark: listed apart in the source
[5] = molecular target: T4, SARS-CoV-2 spike (S) glycoprotein, Omicron BA.4 (SARS-CoV-2, UniProt P0DTC2 14-1273); test: cell-based or functional assay
[6] = molecular target: T5, SARS-CoV-2 spike (S) glycoprotein, D614G (SARS-CoV-2, UniProt P0DTC2 14-1273); test: cell-based or functional assay
[7] = molecular target: T2, SARS-CoV-2 spike (S) glycoprotein, …; test: cell-based or functional assay; remark: listed apart in the source
[8] = molecular target: T6, SARS-CoV-2 spike (S) glycoprotein, Omicron BA.1.1 (SARS-CoV-2, UniProt P0DTC2 14-1273); test: cell-based or functional assay
[9] = molecular target: T3, SARS-CoV-2 Spike-RBD, Delta; test: Gyrolab immunoassay, IgG titrated on Spike-RBD, relative binding (FI)
[10] = molecular target: T1, SARS-CoV-2 spike (S) glycoprotein, …; test: cell-based or functional assay; remark: listed apart in the source
[11] = molecular target: T4, SARS-CoV-2 spike (S) glycoprotein, …; test: cell-based or functional assay; remark: listed apart in the source
[12] = molecular target: SARS-CoV-2 spike (S) glycoprotein, Omicron BA.2.75 (SARS-CoV-2, UniProt P0DTC2 14-1273); test: cell-based or functional assay
[13] = molecular target: SARS-CoV-2 spike (S) glycoprotein, Omicron BA.2.12.1 (SARS-CoV-2, UniProt P0DTC2 14-1273); test: cell-based or functional assay
[14] = molecular target: SARS-CoV-2 spike (S) glycoprotein, Omicron BA.5 (SARS-CoV-2, UniProt P0DTC2 14-1273); test: cell-based or functional assay
[15] = molecular target: T5, SARS-CoV-2 spike (S) glycoprotein, D614G; test: cell-based or functional assay; remark: listed apart in the source
[16] = molecular target: T2, SARS-CoV-2 spike (S) glycoprotein, …; test: cell-based or functional assay; remark: listed apart in the source
[17] = molecular target: T6, SARS-CoV-2 spike (S) glycoprotein, …; test: cell-based or functional assay; remark: listed apart in the source
[18] = molecular target: T6, SARS-CoV-2 spike (S) glycoprotein, …; test: cell-based or functional assay; remark: listed apart in the source
[19] = molecular target: T4, SARS-CoV-2 spike (S) glycoprotein, …; test: cell-based or functional assay; remark: listed apart in the source
[20] = molecular target: SARS-CoV-2 spike (S) glycoprotein, Delta (B.1.617.2) (SARS-CoV-2, UniProt P0DTC2 14-1273); test: cell-based or functional assay
[21] = molecular target: SARS-CoV-2 spike (S) glycoprotein, Omicron BA.5.5 (SARS-CoV-2, UniProt P0DTC2 14-1273); test: cell-based or functional assay
[22] = molecular target: T2, SARS-CoV-2 spike (S) glycoprotein, …; test: cell-based or functional assay; remark: listed apart in the source
[23] = molecular target: T6, SARS-CoV-2 spike (S) glycoprotein, …; test: cell-based or functional assay; remark: listed apart in the source

Binder | pseudovirus neutralization IC50 [1] [ng/mL] | pseudovirus neutralization IC50 [2] [ng/mL] | normalized pseudoneutralization IC50 [4] [ng/mL] | normalized pseudoneutralization IC50 [5] [ng/mL] | normalized pseudoneutralization IC50 [6] [ng/mL] | normalized pseudoneutralization IC50 [7] [ng/mL] | normalized pseudoneutralization IC50 [8] [ng/mL] | EC50 (read off the curve) [3] [ng/mL] | pseudovirus neutralization IC50 [18] [ng/mL] | further results
B1 | 1.11 | 556 | – | – | – | – | – | – | – | –
B2 | – | – | – | – | – | – | – | – | – | binding result [3]: no binding (tested: about 150 ug/ml)
B3 | 1.15 | 339 | 1.47 | 4.69 | 4.92 | 34.8 | > 10000 | ~2000 | – | EC50 (read off the curve) [9]: ~2000 ng/mL
B4 | 0.852 | 1.14 | 0.985 | 0.779 | 4.08 | 2.56 | 6.25 | – | 3.21 | authentic virus neutralization IC50 (FRNT, Vero-TMPRSS2) [10]: < 10 ng/mL; authentic virus neutralization IC50 (FRNT, Vero-TMPRSS2) [11]: < 10 ng/mL; fold improvement of pseudoviral neutralization over COV2-2130 [12]: 90 fold; pseudoviral neutralization IC50 [12]: 1.9 ng/mL; authentic virus neutralization IC50 (FRNT, Vero-TMPRSS2) [13]: < 10 ng/mL; authentic virus neutralization IC50 (FRNT, Vero-TMPRSS2) [14]: < 10 ng/mL; authentic virus neutralization IC50 (FRNT, Vero-TMPRSS2) [15]: < 10 ng/mL; authentic virus neutralization IC50 (FRNT, Vero-TMPRSS2) [16]: < 10 ng/mL; authentic virus neutralization IC50 (FRNT, Vero-TMPRSS2) [17]: < 10 ng/mL; authentic virus neutralization IC50 (FRNT) [19]: 7.47 ng/mL; authentic virus neutralization IC50 (FRNT) [20]: 33.9 ng/mL; authentic virus neutralization IC50 (FRNT) [21]: 5.29 ng/mL; authentic virus neutralization IC50 (FRNT) [22]: 5.53 ng/mL; authentic virus neutralization IC50 (FRNT) [23]: 39.2 ng/mL
B5 | 566 | 626 | – | – | – | – | – | – | – | –
B6 | 0.515 | 0.178 | – | – | – | – | – | ~400 | 0.475 | authentic virus neutralization IC50 (FRNT) [19]: 3.04 ng/mL; authentic virus neutralization IC50 (FRNT) [20]: 6.23 ng/mL; authentic virus neutralization IC50 (FRNT) [21]: 2.82 ng/mL; authentic virus neutralization IC50 (FRNT) [22]: 4.23 ng/mL; authentic virus neutralization IC50 (FRNT) [23]: 9.65 ng/mL
B7 | 0.0392 | 118 | 0.162 | 34.3 | 3.02 | 32 | 4030 | ~1000 | 603 | EC50 (read off the curve) [9]: ~1000 ng/mL
